# Reference: paper PMC11445563
# Experiments:
# [1] = target: Flag-tagged human melanocortin-3 receptor (MC3R) on HEK293T cells (human) (UniProt P41968)
# [2] = target: Flag-tagged human melanocortin-5 receptor (MC5R) on HEK293T cells (human) (UniProt P33032)
# Sequence of UniProt P33032 (P33032 whole entry): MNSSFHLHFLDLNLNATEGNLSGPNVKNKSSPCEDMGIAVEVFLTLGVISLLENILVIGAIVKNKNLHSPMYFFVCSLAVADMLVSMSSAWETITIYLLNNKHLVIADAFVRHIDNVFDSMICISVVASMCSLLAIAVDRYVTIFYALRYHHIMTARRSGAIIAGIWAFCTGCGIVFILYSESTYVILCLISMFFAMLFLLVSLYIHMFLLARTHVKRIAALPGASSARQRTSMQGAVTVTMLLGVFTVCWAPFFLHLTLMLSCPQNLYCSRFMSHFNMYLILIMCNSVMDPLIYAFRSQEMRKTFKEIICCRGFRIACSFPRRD
# Sequence of UniProt P41968 (P41968 whole entry): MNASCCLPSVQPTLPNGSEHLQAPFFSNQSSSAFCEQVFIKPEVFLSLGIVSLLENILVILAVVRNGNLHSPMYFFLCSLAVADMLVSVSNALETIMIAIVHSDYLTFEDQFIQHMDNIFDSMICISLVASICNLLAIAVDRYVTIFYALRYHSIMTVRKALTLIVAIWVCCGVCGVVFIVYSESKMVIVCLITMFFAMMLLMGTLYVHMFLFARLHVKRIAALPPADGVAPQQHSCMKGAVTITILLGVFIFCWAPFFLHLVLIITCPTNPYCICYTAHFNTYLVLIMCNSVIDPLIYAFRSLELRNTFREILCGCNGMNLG
substance,measurement,setting,value
setmelanotide (peptide),"cAMP signaling (GloSensor), HEK293 cells with human MC3R, EC50",[1],2.1 nM
same,"cAMP signaling (GloSensor), HEK293 cells with human MC5R, EC50",[2],451 nM
